The values below come from patent US20240132485A1, “HETEROCYCLIC CULLIN RING UBIQUITIN LIGASE COMPOUNDS AND USES THEREOF” (CEMM - FORSCHUNGSZENTRUM FÜR MOLEKULARE MEDIZIN GMBH, priority 2020, published 2024).

Assay [1] addresses Nanoluc_DDB1 (N-terminal Nanoluc luciferase, G4S linker, DDB1 (FL)) (UniProt Q16531). Briefly: NanoBRET in HEK293T cells, 10 µM compound Example 3-27; class B = 3-4 fold increase. A general note: BRET reads energy transfer from a luciferase to a nearby fluorophore.
Assay [2] has the same target. Put plainly: NanoBRET in HEK293T cells, 10-point titration of compound Example 3-63; class E = >10 µM.
Assay [3] shares this target. Briefly: NanoBRET in HEK293T cells, 10-point titration of compound Example 3-35; class A = EC50<=0.25 µM.
The target is the same in assay [4]. Briefly: NanoBRET in HEK293T cells, 10-point titration of compound Example 3-52; class A = EC50<=0.25 µM.

Chain of Nanoluc_DDB1 (N-terminal Nanoluc luciferase, G4S linker, DDB1 (FL)) (Q16531 other isoform, or with tags, fused parts or gaps): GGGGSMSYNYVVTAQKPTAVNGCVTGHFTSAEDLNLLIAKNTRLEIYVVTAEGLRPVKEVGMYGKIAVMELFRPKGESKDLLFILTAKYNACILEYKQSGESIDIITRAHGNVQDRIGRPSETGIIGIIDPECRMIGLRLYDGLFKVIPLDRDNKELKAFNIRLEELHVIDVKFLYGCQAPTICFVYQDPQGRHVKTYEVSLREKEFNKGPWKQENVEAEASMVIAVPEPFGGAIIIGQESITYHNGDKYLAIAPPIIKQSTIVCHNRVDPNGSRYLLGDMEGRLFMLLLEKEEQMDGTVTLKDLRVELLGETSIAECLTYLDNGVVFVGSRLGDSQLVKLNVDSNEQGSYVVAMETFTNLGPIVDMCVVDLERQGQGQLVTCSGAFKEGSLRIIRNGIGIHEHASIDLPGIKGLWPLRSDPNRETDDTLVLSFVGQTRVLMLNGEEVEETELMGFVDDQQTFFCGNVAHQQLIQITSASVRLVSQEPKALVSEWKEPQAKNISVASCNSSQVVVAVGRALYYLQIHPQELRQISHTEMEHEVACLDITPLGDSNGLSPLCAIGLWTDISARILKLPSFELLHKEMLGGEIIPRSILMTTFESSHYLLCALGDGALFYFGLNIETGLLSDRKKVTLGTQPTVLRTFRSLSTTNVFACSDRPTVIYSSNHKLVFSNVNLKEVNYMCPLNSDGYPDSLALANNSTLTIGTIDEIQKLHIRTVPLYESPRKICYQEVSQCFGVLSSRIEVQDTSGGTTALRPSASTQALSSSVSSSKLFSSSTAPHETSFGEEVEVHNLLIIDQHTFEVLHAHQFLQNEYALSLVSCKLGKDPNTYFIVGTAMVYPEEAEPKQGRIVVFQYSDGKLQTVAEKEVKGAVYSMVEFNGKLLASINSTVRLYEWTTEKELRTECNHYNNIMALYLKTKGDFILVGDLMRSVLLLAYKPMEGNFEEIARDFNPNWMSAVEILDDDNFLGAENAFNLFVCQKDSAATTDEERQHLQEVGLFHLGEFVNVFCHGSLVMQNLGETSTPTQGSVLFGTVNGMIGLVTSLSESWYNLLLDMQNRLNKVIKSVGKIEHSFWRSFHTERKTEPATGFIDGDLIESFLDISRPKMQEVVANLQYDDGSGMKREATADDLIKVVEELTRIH

Substance “HaloTag_CDK12 (N-terminal HaloTag, G4S linker, CDK12 (713-1052)) (from UniProt Q9NYV4 713-1052) (enzyme)” had a NanoBRET fold increase in assay [1] of 3 to 4 fold. Also, the EC50 in assay [2] was > 10 µM; in assay [3], < 250 nM; in assay [4], < 250 nM.

For orientation: EC50 means the midpoint of the concentration-response curve. A lower EC50 goes with an effect from little substance.
